Data as given in patent publication US20120316071A1 (published 2012).

Assays:
[1] = molecular target: T1, Recombinant Human DLL4 (R&D Systems Cat#1506-D4/CF) (human, UniProt Q9NR61 27-524); test: 96-well plate ECL
T1 construct: bought recombinant protein; also called rHuman DLL4; delta-like protein 4

[2] = molecular target: T2, Recombinant Human DLL4 (R&D Systems Cat#1506-D4/CF) (human, UniProt Q9NR61 27-524); test: ECL (MSD) multispot binding assay, antigen spotted on plate, 20 nM Fab;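 also: purified Fab incubated 1 h at 20 °C on antigen-spotted plate, bound Fab revealed with TAG detection antibody, ECL read, antigen signal divided by same-well blank, ratio ≥4 counted as hit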
T2 construct: Bought recombinant protein; also called delta-like protein 4; rHuman DLL4

[3] = molecular target: T3, rHuman Erythropoietin R/Fc Chimera, CF (R&D Systems Cat#963-ER) (human, UniProt P19235 25-250); test: as above
T3 construct: Bought reagent; also called EPO R; EPO R/Fc; Fc part of the bought chimera not given
T3 sequence (looked up): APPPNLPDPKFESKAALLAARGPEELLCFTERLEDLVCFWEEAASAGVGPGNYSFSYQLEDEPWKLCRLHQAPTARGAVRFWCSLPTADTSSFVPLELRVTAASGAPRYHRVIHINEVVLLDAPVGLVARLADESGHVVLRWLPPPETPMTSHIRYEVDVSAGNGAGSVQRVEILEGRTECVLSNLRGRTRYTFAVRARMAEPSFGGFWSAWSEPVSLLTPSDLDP

[4] = molecular target: T4, rHuman Notch-1/Fc Chimera, CF (R&D Systems Cat#3647-TK) (human, UniProt P46531 19-526); test: as above
T4 construct: Bought reagent; Fc part of the bought chimera not given

[5] = molecular target: T5, rHuman HGF R/c-MET/Fc Chimera, CF (R&D Systems Cat#358-MT/CF) (human, UniProt P08581 25-932); test: as above
T5 construct: Bought reagent; also called HGF R/Fc; hepatocyte growth factor receptor; Fc part of the bought chimera not given

[6] = molecular target: T6, rHuman P-Cadherin/Fc Chimera, CF (R&D Systems Cat#861-PC) (human, UniProt P22223 108-654); test: as above
T6 construct: Bought reagent; Fc part of the bought chimera not given

[7] = molecular target: T7, rHuman ErbB2/Fc Chimera, CF (R&D Systems Cat#1129-ER) (human, UniProt P04626 23-652); test: as above
T7 construct: Bought reagent; also called human epidermal growth factor 2 receptor; Fc part of the bought chimera not given

[8] = molecular target: T8, rHuman CD44/Fc Chimera, CF (R&D Systems Cat#3660-CD) (human, UniProt P16070 21-220); test: as above
T8 construct: Bought reagent; Fc part of the bought chimera not given

[9] = molecular target: T9, rHuman IGF-1 sR, CF (R&D Systems Cat#391-GR) (human, UniProt P08069 31-932); test: as above
T9 construct: Bought soluble receptor; also called insulin-like growth factor-1 soluble receptor

[10] = molecular target: T10, rHuman EGF R/Fc Chimera, CF (R&D Systems Cat#344-ER) (human, UniProt P00533 25-645); test: as above
T10 construct: Bought reagent; also called epidermal growth factor receptor; Fc part of the bought chimera not given

[11] = molecular target: T1, Recombinant Human DLL4 (R&D Systems …); test: Multispot ECL
[12] = molecular target: T11, Recombinant Human DLL4 (delta-like protein 4) (human, UniProt Q9NR61 27-524); test: ECL (MSD) binding assay, Fab on immobilised recombinant human DLL4
T11 construct: Bought recombinant protein; also called rHuman DLL4

T5 sequence (P08581 25-932, change not shown): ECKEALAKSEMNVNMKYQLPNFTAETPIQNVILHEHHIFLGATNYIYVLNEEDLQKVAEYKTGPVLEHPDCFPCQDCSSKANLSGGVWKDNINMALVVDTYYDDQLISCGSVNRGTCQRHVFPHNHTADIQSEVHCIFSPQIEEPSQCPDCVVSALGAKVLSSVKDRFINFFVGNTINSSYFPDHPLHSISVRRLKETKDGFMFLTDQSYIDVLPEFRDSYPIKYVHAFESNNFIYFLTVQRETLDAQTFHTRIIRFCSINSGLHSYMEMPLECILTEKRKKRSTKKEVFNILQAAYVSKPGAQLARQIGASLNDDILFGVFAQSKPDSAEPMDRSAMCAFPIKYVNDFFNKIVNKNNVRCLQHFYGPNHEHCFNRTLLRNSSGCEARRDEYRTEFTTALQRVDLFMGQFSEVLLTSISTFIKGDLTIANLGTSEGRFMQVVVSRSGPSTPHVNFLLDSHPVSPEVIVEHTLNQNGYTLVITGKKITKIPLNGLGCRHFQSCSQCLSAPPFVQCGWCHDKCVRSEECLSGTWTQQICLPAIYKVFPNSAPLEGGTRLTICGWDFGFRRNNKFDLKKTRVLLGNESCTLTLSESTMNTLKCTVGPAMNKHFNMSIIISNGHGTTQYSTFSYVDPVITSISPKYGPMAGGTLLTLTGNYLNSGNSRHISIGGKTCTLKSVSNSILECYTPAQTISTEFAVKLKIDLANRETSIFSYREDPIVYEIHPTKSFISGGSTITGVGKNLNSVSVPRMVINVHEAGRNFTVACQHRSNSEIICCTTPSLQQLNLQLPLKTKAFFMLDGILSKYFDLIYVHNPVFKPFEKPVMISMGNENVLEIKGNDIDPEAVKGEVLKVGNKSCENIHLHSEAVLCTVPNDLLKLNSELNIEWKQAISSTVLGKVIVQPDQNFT

B1: Fab VH5-51_IGHD5-18*01>3_IGHJ4*01 G100K & V3-4_IGLJ1*01 (Fab, V domains shown)
VH: EVQLVQSGAEVKKPGESLKISCKGSGYSFTSYWIGWVRQMPGKGLEWMGIIYPGDSDTRYSPSFQGQVTISADKSISTAYLQWSSLKASDTAMYYCARRKYSYGYDYFDYWGQGTLVTVSS
VL: QTVVTQEPSFSVSPGGTVTLTCGLSSGSVSTSYYPSWYQQTPGQAPRTLIYSTNTRSSGVPDRFSGSILGNKAALTITGAQADDESDYYCVLYMGSGISYVFGTGTKVTVL
notes: Fab
fold ECL signal against the parent Fab [1]: ~2 fold

B2: Fab VH5-51_IGHD5-18*01>3_IGHJ4*01 G104T & V3-4_IGLJ1*01 (Fab, V domains shown)
VH: EVQLVQSGAEVKKPGESLKISCKGSGYSFTSYWIGWVRQMPGKGLEWMGIIYPGDSDTRYSPSFQGQVTISADKSISTAYLQWSSLKASDTAMYYCARRGYSYTYDYFDYWGQGTLVTVSS
VL: QTVVTQEPSFSVSPGGTVTLTCGLSSGSVSTSYYPSWYQQTPGQAPRTLIYSTNTRSSGVPDRFSGSILGNKAALTITGAQADDESDYYCVLYMGSGISYVFGTGTKVTVL
notes: Fab
fold ECL signal against the parent Fab [1]: ~2 fold

B3: Fab VH3-23_IGHD2-21*01>3_IGHJ6*01 H100E/S108P/Y113G Y114P & V2-13_IGLJ2*01 (Fab, V domains shown)
VH: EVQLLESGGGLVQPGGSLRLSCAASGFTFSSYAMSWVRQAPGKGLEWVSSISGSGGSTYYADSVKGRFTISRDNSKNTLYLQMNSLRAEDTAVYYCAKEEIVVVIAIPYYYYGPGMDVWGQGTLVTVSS
VL: SSELTQDPAVSVALGQTVRITCQGDSLRSYYASWYQQKPGQAPVLVIYGKNNRPSGIPDRFSGSSSGNTASLTITGAQAEDEADYYCNSRDSSGNHLVVFGGGTKLTVL
notes: Tested as Fab made in E. coli (VH-CH1 with His and Flag tags; lambda CL); also called EPG Y114P
ECL multispot value [2]: 1.1
ECL multispot value [3]: 2.3
ECL multispot value [4]: 1.4
ECL multispot value [5]: 2.7
ECL multispot value [6]: 1.3
ECL multispot value [7]: 1.4
ECL multispot value [8]: 1.1
ECL multispot value [9]: 0.9
ECL multispot value [10]: 1.2

B4: Fab VH3-23_IGHD2-21*01>3_IGHJ6*01 H100E/S108P/Y113G Y114T & V2-13_IGLJ2*01 (Fab, V domains shown)
VH: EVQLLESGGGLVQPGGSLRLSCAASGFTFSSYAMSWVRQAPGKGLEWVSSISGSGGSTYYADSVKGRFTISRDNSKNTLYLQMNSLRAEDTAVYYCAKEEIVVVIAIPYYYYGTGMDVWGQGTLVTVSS
VL: SSELTQDPAVSVALGQTVRITCQGDSLRSYYASWYQQKPGQAPVLVIYGKNNRPSGIPDRFSGSSSGNTASLTITGAQAEDEADYYCNSRDSSGNHLVVFGGGTKLTVL
notes: Tested as Fab made in E. coli (VH-CH1 with His and Flag tags; lambda CL); also called EPG Y114T
ECL multispot value [2]: 1.6
ECL multispot value [3]: 2
ECL multispot value [4]: 1.8
ECL multispot value [5]: 1.8
ECL multispot value [6]: 1.7
ECL multispot value [7]: 1.4
ECL multispot value [8]: 1.1
ECL multispot value [9]: 1.1
ECL multispot value [10]: 1.3

B5: Fab VH1-46_IGHD6-6*01_IGHJ1*01 & A27_IGKJ1*01 (Fab, V domains shown)
VH: QVQLVQSGAEVKKPGASVKVSCKASGYTFTSYYMHWVRQAPGQGLEWMGIINPSGGSTSYAQKFQGRVTMTRDTSTSTVYMELSSLRSEDTAVYYCAREEYSSSSAEYFQHWGQGTLVTVSS
VL: not shown
notes: Fab; also called non-Hit
binding result [11]: no binding

B6: Fab VH1-46_IGHD6-6*01_IGHJ1*01 & A27_IGKJ1*01 (Fab, V domains shown)
VH: QVQLVQSGAEVKKPGASVKVSCKASGYTFTSYYMHWVRQAPGQGLEWMGIINPSGGSTSYAQKFQGRVTMTRDTSTSTVYMELSSLRSEDTAVYYCAREEYSSSSAEYFQHWGQGTLVTVSS
VL: not shown
notes: Germline Fab from the combinatorial library, with CH1 (plus His6 and Flag tags) and a kappa constant region from the expression plasmids
binding result [12]: no binding

B7: Fab VH1-46_IGHD6-6*01_IGHJ1*01 & L25_IGKJ1*01 (Fab, V domains shown)
VH: QVQLVQSGAEVKKPGASVKVSCKASGYTFTSYYMHWVRQAPGQGLEWMGIINPSGGSTSYAQKFQGRVTMTRDTSTSTVYMELSSLRSEDTAVYYCAREEYSSSSAEYFQHWGQGTLVTVSS
VL: EIVMTQSPATLSLSPGERATLSCRASQSVSSSYLSWYQQKPGQAPRLLIYGASTRATGIPARFSGSGSGTDFTLTISSLQPEDFAVYYCQQDYNLPPWTFGQGTKVEIKR
notes: as for B6
binding result [12]: no binding

B8: Fab VH1-46_IGHD6-6*01_IGHJ1*01 & L25_IGKJ1*01 (Fab, V domains shown)
VH: QVQLVQSGAEVKKPGASVKVSCKASGYTFTSYYMHWVRQAPGQGLEWMGIINPSGGSTSYAQKFQGRVTMTRDTSTSTVYMELSSLRSEDTAVYYCAREEYSSSSAEYFQHWGQGTLVTVSS
VL: EIVMTQSPATLSLSPGERATLSCRASQSVSSSYLSWYQQKPGQAPRLLIYGASTRATGIPARFSGSGSGTDFTLTISSLQPEDFAVYYCQQDYNLPPWTFGQGTKVEIKR
notes: Fab; also called non-Hit
binding result [11]: no binding
